US20100104530A1 (published 2010)

T1: GST fusion of VPAC1 variant 3-2 (amino acids 123-457 of SEQ ID NO:15) (human, UniProt P32241 123-457)
T1 construct: not shown: GST carrier and the pGEX vector linker
T1 sequence: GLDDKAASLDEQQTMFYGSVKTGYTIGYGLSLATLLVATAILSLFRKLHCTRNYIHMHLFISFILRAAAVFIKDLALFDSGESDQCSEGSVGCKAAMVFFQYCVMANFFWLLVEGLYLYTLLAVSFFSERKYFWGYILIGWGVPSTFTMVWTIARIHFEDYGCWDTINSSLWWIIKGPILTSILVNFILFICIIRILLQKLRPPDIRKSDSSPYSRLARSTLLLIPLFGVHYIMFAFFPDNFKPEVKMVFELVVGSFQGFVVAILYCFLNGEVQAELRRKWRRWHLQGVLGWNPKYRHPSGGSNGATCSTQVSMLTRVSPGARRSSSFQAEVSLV

T2: GST fusion of VPAC1 variant 4-2 (amino acids 231-457 of SEQ ID NO:15) (human, UniProt P32241 231-457)
T2 construct: not shown: GST carrier and the pGEX vector linker
T2 sequence: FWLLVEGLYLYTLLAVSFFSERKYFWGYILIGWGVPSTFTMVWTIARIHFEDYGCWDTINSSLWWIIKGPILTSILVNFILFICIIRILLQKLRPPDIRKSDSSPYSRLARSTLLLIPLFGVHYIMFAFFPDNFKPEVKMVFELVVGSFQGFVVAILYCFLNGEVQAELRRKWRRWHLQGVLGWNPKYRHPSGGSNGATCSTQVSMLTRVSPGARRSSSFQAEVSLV

T3: GST fusion of VPAC1 extracellular loop 3 (human)
T3 construct: also called isolated extracellular loop 3 of the VPAC1 receptor; not shown: glutathione-S-transferase (GST)
T3 chain: PDNFKPEVKMLFE

T4: GST fusion of VPAC1 extracellular loop 2 (human)
T4 construct: also called isolated extracellular loop 2 of the VPAC1 receptor; not shown: glutathione-S-transferase (GST)
T4 chain: IHFEDYGCWDTINSSLWW

T5: VPAC1 receptor of mouse bone marrow-derived CD41/61+ megakaryocytes (mouse, UniProt P97751 31-459)
T5 construct: whole, on cells; Detected by immunoblot of megakaryocytes and addressed on living megakaryocytes in the cAMP assays; also called VPAC1 receptor on the murine megakaryocytes
T5 sequence (looked up): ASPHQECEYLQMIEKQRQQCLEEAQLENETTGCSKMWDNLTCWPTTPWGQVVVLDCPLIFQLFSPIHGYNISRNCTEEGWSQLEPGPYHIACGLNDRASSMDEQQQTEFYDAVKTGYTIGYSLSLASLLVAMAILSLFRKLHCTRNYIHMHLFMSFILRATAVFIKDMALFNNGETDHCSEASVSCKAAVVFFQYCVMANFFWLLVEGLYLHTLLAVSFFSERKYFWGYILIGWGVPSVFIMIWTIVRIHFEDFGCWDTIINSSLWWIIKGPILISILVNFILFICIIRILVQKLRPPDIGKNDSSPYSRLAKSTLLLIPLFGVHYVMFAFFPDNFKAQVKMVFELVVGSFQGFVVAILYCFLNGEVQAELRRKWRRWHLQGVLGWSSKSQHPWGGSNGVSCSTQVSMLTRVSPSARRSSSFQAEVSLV


Experiments:
[1] = target: T1, GST fusion of VPAC1 variant 3-2 (amino …); experiment: western blot on GST-fused VPAC1 deletion variants
Description: (§1) For the epitope mapping of 23A11, several VPAC1 deletion variants were fused to GST and expressed. Binding of 23A11 to the VPAC1 deletion variants was tested by western blotting.
(§2) VPAC1 variant 4-2 (and, to a lesser extent, variant 3-2) was recognized by 23A11. Since this protein contains the second as well as the third extracellular loop of VPAC1, both loops (extracellular loop 2: SEQ ID NO:1; extracellular loop 3:SEQ ID NO:1) were made as GST fusion proteins and tested in western blotting. The murine antibody 23A11 was binding to each of these loops.

[2] = target: T2, GST fusion of VPAC1 variant 4-2 (amino …); experiment: western blot on GST-fused VPAC1 deletion variants
Description: as §1, §2

[3] = target: T6, GST-VPAC1 fusion protein (full length human VPAC1) (human, UniProt P08515 1-218 = GST); experiment: SPR (BIAcore 1000), GST-VPAC1 immobilised on CM5, antibody injected, 1:1 Langmuir fit; first batch; first of two batches of murine 23A11
T6 construct: also called recombinant VPAC1
Description: (§3) For kinetic binding analysis of GST-VPAC1 with the GST-VPAC1-antibodies, we used a BIAcore surface plasmon resonance system at 25° C. These interactions were performed on a BIAcore 1000. GST-VPAC1 was covalently immobilized on a CM5 sensorchip (carboxylated dextran matrix) after activation with a 1:1 mixture of 1-ethyl-3-(3-dimethylaminopropyl)carbodiimide and N-hydroxysuccinimide. The remaining active sites on the chip were blocked by 1.0 M ethanolamine-HCl at pH 8.5. To perform binding assays with the GST-VPAC1-antibodies, various concentrations (ranging from 250 nm to 5 nm) of murine 23A11 were injected over the immobilized GST-VPAC-1 at a flow rate of 30 μl/min. This was performed in a running buffer consisting of 0.01 M HEPES at pH 7.4, 0.15M NaCl, 3 mM EDTA and 0.005% Surfactant P20 (or Tween 20). The sensorgrams were evaluated using the BIAevaluation 4.1 software. The rate constants kₐ and kd and the dissociation constant KD were determined by using a global fit with a Langmuir 1:1 binding model with baseline drift.

[4] = target: T3, GST fusion of VPAC1 extracellular loop 3; experiment: western blot on GST fusion of extracellular loop 3
[5] = target: T4, GST fusion of VPAC1 extracellular loop 2; experiment: western blot on GST fusion of extracellular loop 2
[6] = target: T5, VPAC1 receptor of mouse bone …; experiment: immunoblot of mouse bone marrow megakaryocytes
[7] = target: T6, GST-VPAC1 fusion protein (full length …); experiment: SPR (BIAcore 1000), GST-VPAC1 immobilised on CM5, antibody injected, 1:1 Langmuir fit; second batch; second of two batches of murine 23A11
Description: as §3

[8] = target: T6, GST-VPAC1 fusion protein (full length …); experiment: SPR (BIAcore 1000), GST-VPAC1 immobilised on CM5, 1:1 Langmuir fit; humanized 23A11, isotype not stated

Binder | binding result [1] | binding result [2] | Kd [3] | binding result [4] | binding result [5] | binding result [6] | Kd [7] | Kd [8]
murine anti-VPAC1 monoclonal antibody 23A11 (antibody, V domains shown, Mouse monoclonal antibody from a hybridoma; also called murine 23A11; anti-VPAC1 receptor antibody 23A11) VH: EVQLQESGPSLVKPSQTLSLTCSVTGDSITSGYWNWIRKFPGNKLEYMGYIRYSGSTYYSPALKSRFSITRDTSKNQYYLQLNSVTTEDTATYYCSNWAYWGQGTLVTVSA VL: DIVITQDELSNPVTSGESVSISCRSSKSLLYKDGKTYLNWFLQRPGQSPQLLIYLMSTRASGVSDRFSGSGSGTDFTLEISRVKAEDVGVYYCQQLVEYPLTFGAGTKLELK | binds | binds | 28.3 nM | binds | binds | binds | 19.9 nM | –
humanized anti-VPAC1 monoclonal antibody 23A11 (antibody, V domains shown, also called h23A11; rhu23A11) VH: EVQLQESGPGLVKPSQTLSLTCTVSGDSITSGYWNWIRKHPGKGLEYMGYIRYSGSTYYSPSLKSRFTISRDTSKNQYSLKLSSVTAADTATYYCSNWAYWGQGTLVTVSA VL: DIVITQSPLSLPVTPGEPVSISCRSSKSLLYKDGKTYLNWFLQRPGQSPQLLIYLMSTRASGVSDRFSGSGSGTDFTLKISRVEAEDVGVYYCQQLVEYPLTFGQGTKLEIK | – | – | – | – | – | – | – | 9.82 nM
